B1: Tse15 toxic C-terminal domain (residues 1396-1590) (domain or fragment)
chain: NSFNYGEMFGIPASAQSGLAYQGQRNYECYAETGELCKIKVPPLFDYVACSGGGLGIGVGFVKNQWTGEYYISGSKDSLLIPVAKSVAQNKQFSAKDLAGASCVGGNIHNIPSYTKTTMTMGEITNEFVSGASVTVGGGAYGAVANVVVPLVSKSSPVKGTWASELGVGTPGFNVGVSGTVSVDTILDAVKPSKK
notes: Tse15, A. baumannii AB307-0294, toxic CTD, residues 1396-1590; also called CTD; toxin domain; not shown: His6, C-terminal, kept
B2: Tse15 N-terminal clade domain (residues 1-334) (domain or fragment)
chain: MAKENTQQKEIKRQPAVELAVFNLNSVTDVADLQMIASQVQLYLQVCGNTTLEQIKSKANITTVANIFALTGSVLDLMLYATDKKTGDAAVQRGALLAANLIGLFSEPNNEAHARMALRPMFGLMAECLYRENGKIKETDIKRLGLHLNAMIAGDLENFLKETQAKLSSLLISATTLGVTILQSMATPATGINAGITTAAGASAEKRDPKLKFTNWAVPLIDLLGKPSQANLTPKIQPNITSRLQQEATQAIAALSQTLQQQANAGQKYTLAWLLQETLKAIQALENKGNASVPINQTGEYERHTKGDTLEFVSLQADALNAPPCEGADSQSGK
notes: Tse15, A. baumannii AB307-0294, N-terminal clade domain, residues 1-334; Residues 14-333 are modelled in the structure; also called N-terminal clade-specific domain; not shown: StrepTag-II, N-terminal, kept

Assays:
[1] = target: T1, Tse15 central Rhs domain (residues 335-1395) (Acinetobacter baumannii (strain …, UniProt A0A5K6CSR3 335-1395)); assay: pull-down + SEC; nickel affinity (HisTrap HP) from E. coli lysate by the His tag that only the CTD carries, then analytical size-exclusion (Superdex200 10/300 GL Increase, 50 mM Hepes pH 8.0, 0.3 M NaCl); fragments identified by SDS-PAGE, Western blot, peptide fingerprinting and N-terminal sequencing; conditions: partners not purified
T1 construct: Tse15, A. baumannii AB307-0294, central Rhs domain, residues 335-1395; also called Rhs cage; β-cocoon
T1 sequence: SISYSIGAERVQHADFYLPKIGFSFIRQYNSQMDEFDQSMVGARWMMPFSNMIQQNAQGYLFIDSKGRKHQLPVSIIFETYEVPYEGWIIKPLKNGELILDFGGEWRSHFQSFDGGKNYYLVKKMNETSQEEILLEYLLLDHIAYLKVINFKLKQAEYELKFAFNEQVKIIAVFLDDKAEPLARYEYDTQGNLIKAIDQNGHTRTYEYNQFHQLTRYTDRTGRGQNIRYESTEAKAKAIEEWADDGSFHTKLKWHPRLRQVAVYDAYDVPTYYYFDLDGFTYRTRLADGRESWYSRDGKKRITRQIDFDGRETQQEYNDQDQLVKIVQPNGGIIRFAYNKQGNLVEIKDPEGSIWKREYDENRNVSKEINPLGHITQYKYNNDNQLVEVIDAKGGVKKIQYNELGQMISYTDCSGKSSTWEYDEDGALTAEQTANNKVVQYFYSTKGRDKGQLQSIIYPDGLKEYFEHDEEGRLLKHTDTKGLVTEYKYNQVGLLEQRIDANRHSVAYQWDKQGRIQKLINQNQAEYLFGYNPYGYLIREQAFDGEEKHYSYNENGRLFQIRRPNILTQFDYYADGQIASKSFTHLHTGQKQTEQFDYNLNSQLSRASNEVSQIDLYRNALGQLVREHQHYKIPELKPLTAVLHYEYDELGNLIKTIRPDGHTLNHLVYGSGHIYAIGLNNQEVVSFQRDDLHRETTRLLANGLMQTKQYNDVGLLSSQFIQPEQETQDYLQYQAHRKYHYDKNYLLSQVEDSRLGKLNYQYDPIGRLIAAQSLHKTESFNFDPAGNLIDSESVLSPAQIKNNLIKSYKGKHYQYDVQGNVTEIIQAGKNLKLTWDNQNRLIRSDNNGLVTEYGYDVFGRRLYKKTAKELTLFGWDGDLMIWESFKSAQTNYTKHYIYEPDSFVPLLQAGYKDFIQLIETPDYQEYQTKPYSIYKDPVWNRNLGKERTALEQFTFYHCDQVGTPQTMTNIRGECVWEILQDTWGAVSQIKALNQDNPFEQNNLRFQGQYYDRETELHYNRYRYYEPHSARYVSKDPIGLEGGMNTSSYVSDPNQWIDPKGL

[2] = target: B2; assay: as above; conditions: partners not purified
[3] = target: T1, Tse15 central Rhs domain (residues …); assay: cryo-EM structure; single particle cryo-EM of purified protein, 3 mg/mL, UltrAuFoil grids; Tse15 at 200 kV (Talos Arctica), Tse15NN at 300 kV (Titan Krios); conditions: both partners purified

| Binder | binding result [1] | binding result [2] | binding result [3] |
| --- | --- | --- | --- |
| B1 | binds | binds |  |
| B2 |  |  | binds |
